Results reported in patent US11994512B2, “Single-cell genomic methods to generate ex vivo cell systems that recapitulate in vivo biology with improved fidelity” (Massachusetts Institute of Technology, priority 2018, dated 2024).

B1: P50431 (protein, UniProt P50431 1-478, looked up)
chain: MADRDATLWASHEKMLSQPLKDSDAEVYSIIKKESNRQRVGLELIASENFASRAVLEALGSCLNNKYSEGYPGQRYYGGTEFIDELEMLCQKRALQAYHLDPQCWGVNVQPYSGSPANFAVYTALVEPHGRIMGLDLPDGGHLTHGFMTDKKKISATSIFFESMPYKVYPETGYINYDQLEENASLFHPKLIIAGTSCYSRNLDYARLRKIADDNGAYLMADMAHISGLVAAGVVPSPFEHCHVVTTTTHKTLRGCRAGMIFYRKGVRSVDPKTGKETYYELESLINSAVFPGLQGGPHNHAIAGVAVALKQAMTTEFKIYQLQVLANCRALSDALTELGYKIVTGGSDNHLILMDLRSKGTDGGRAEKVLEACSIACNKNTCPGDKSALRPSGLRLGTPALTSRGLLEEDFQKVAHFIHRGIELTLQIQSHMATKATLKEFKEKLAGDEKIQSAVATLREEVENFASNFSLPGLPDF
modifications: full-length
B2: P51162 (protein, UniProt P51162 1-128, looked up)
chain: MAFSGKYEFESEKNYDEFMKRLGLPGDVIERGRNFKIITEVQQDGQDFTWSQSYSGGNIMSNKFTIGKECEMQTMGGKKFKATVKMEGGKVVAEFPNYHQTSEVVGDKLVEISTIGDVTYERVSKRLA
modifications: full-length
B3: P48036 (protein, UniProt P48036 1-319, looked up)
chain: MATRGTVTDFPGFDGRADAEVLRKAMKGLGTDEDSILNLLTSRSNAQRQEIAQEFKTLFGRDLVDDLKSELTGKFEKLIVAMMKPSRLYDAYELKHALKGAGTDEKVLTEIIASRTPEELSAIKQVYEEEYGSNLEDDVVGDTSGYYQRMLVVLLQANRDPDTAIDDAQVELDAQALFQAGELKWGTDEEKFITIFGTRSVSHLRRVFDKYMTISGFQIEETIDRETSGNLEQLLLAVVKSIRSIPAYLAETLYYAMKGAGTDDHTLIRVVVSRSEIDLFNIRKEFRKNFATSLYSMIKGDTSGDYKKALLLLCGGEDD
modifications: full-length
B4: P31362 (protein, UniProt P31362 1-431, looked up)
chain: MVNLEPMHTEIKMSGDVADSTDTRSTFGQVEPGNDRNGLDFNRQIKTEDLGDSLQQTLSHRPCHLSQGPTMMPGNQMSGDMASLHPLQQLVLVPGHLQSVSQFLLSQTPPGQQGLQPNLLSFPQQQSTLLLPQTGPGLASQAVGRPGLSGSSLEPHLDAPQHLPGPKHLPGPGGNDEPTDLEELEKFAKTFKQRRIKLGFTQGDVGLAMGKLYGNDFSQTTISRFEALNLSFKNMCKLKPLLEKWLNDAESSPSDPSASTPSSYPTLSEVFGRKRKKRTSIETNIRLTLEKRFQDNPKPSSEEISMIAEQLSMEKEVVRVWFCNRRQKEKRINCPVATPVKPPIYNSRLVSPSGSLGPLSVPPVHSTMPGTVTSSCSPGNNSRPSSPGSGLHASSPTASQNNSKAAMNSSSSSSFNSSGSWYRWNHPTYLH
modifications: full-length
B5: P43883 (protein, UniProt P43883 1-425, looked up)
chain: MAAAVVDPQQSVVMRVANLPLVSSTYDLVSSAYVSTKDQYPYLRSVCEMAEKGVKTVTSAAMTSALPIIQKLEPQIAVANTYACKGLDRMEERLPILNQPTSEIVASARGAVTGAKDVVTTTMAGAKDSVASTVSGVVDKTKGAVTGSVERTKSVVNGSINTVLGMVQFMNSGVDNAITKSELLVDQYFPLTQEELEMEAKKVEGFDMVQKPSNYERLESLSTKLCSRAYHQALSRVKEAKQKSQETISQLHSTVHLIEFARKNMHSANQKIQGAQDKLYVSWVEWKRSIGYDDTDESHCVEHIESRTLAIARNLTQQLQTTCQTVLVNAQGLPQNIQDQAKHLGVMAGDIYSVFRNAASFKEVSDGVLTSSKGQLQKMKESLDEVMDYFVNNTPLNWLVGPFYPQSTEVNKASLKVQQSEVKAQ
modifications: full-length
B6: P43137 (protein, UniProt P43137 1-165, looked up)
chain: MARNAYFILLSCLIVLSPSQGQEAEEDLPSARISCPEGSNAYSSYCYYFTEDRLTWADADLFCQNMNSGYLVSVLSQAEGNFVASLIKESGTTDANVWTGLHDPKRNRRWHWSSGSLFLYKSWATGSPNSSNRGYCVSLTSNTGYKKWKDDNCDAQYSFVCKFKG
modifications: full-length
B7: P40338 (protein, UniProt P40338 1-181, looked up)
chain: MPRKAASPEEAAGEPGPEEMEAGRPRPVLRSVNSREPSQVIFCNRSPRVVLPLWLNFDGEPQPYPILPPGTGRRIHSYRGHLWLFRDAGTHDGLLVNQTELFVPSLNVDGQPIFANITLPVYTLKERCLQVVRSLVKPENYRRLDIVRSLYEDLEDYPSVRKDIQRLSQEHLESQHLEEEP
modifications: full-length
B8: P48756 (protein, UniProt P48756 1-144, looked up)
chain: MVALKTCSLLLVLLFLAVGLGEKEEVEFRSHAKFAGPRPRGPRYAEGTFISDYSIAMDKIRQQDFVNWLLAQRGKKSDWKHNITQREARALVLAGQSQGKEDKEAQESSLPKSLSDDDVLRDLLIQELLAWMVDQTELCRLRSQ
modifications: full-length
B9: P27600 (protein, UniProt P27600 1-379, looked up)
chain: MSGVVRTLSRCLLPAEAGARERRAGAARDAEREARRRSRDIDALLARERRAVRRLVKILLLGAGESGKSTFLKQMRIIHGREFDQKALLEFRDTIFDNILKGSRVLVDARDKLGIPWQHSENEKHGMFLMAFENKAGLPVEPATFQLYVPALSALWRDSGIREAFSRRSEFQLGESVKYFLDNLDRIGQLNYFPSKQDILLARKATKGIVEHDFVIKKIPFKMVDVGGQRSQRQKWFQCFDGITSILFMVSSSEYDQVLMEDRRTNRLVESMNIFETIVNNKLFFNVSIILFLNKMDLLVEKVKSVSIKKHFPDFKGDPHRLEDVQRYLVQCFDRKRRNRSKPLFHHFTTAIDTENIRFVFHAVKDTILQENLKDIMLQ
modifications: full-length
B10: P48281 (protein, UniProt P48281 1-422, looked up)
chain: MEAMAASTSLPDPGDFDRNVPRICGVCGDRATGFHFNAMTCEGCKGFFRRSMKRKALFTCPFNGDCRITKDNRRHCQACRLKRCVDIGMMKEFILTDEEVQRKREMIMKRKEEEALKDSLRPKLSEEQQHIIAILLDAHHKTYDPTYADFRDFRPPIRADVSTGSYSPRPTLSFSGDSSSNSDLYTPSLDMMEPASFSTMDLNEEGSDDPSVTLDLSPLSMLPHLADLVSYSIQKVIGFAKMIPGFRDLTSDDQIVLLKSSAIEVIMLRSNQSFTLDDMSWDCGSQDYKYDITDVSRAGHTLELIEPLIKFQVGLKKLNLHEEEHVLLMAICIVSPDRPGVQDAKLVEAIQDRLSNTLQTYIRCRHPPPGSHQLYAKMIQKLADLRSLNEEHSKQYRSLSFQPENSMKLTPLVLEVFGNEIS
modifications: full-length
B11: P30681 (protein, UniProt P30681 1-210, looked up)
chain: MGKGDPNKPRGKMSSYAFFVQTCREEHKKKHPDSSVNFAEFSKKCSERWKTMSAKEKSKFEDLAKSDKARYDREMKNYVPPKGDKKGKKKDPNAPKRPPSAFFLFCSENRPKIKIEHPGLSIGDTAKKLGEMWSEQSAKDKQPYEQKAAKLKEKYEKDIAAYRAKGKSEAGKKGPGRPTGSKKKNEPEDEEEEEEEEEEEDDEEEEEDEE
modifications: full-length
B12: P50543 (protein, UniProt P50543 1-98, looked up)
chain: MPTETERCIESLIAVFQKYSGKDGNNTQLSKTEFLSFMNTELAAFTKNQKDPGVLDRMMKKLDLNCDGQLDFQEFLNLIGGLAIACHDSFIQTSQKRI
modifications: full-length

Tested on: intracellular proteome of ENR+CD and ENR organoids
Assay: LC-MS/MS TMT proteomics of ENR+CD versus ENR organoids
Format: cell-based, C57BL/6 mice
Conditions: for Average logFC / M1-1 Log2 Median Normalized / M1-2 Log2 Median Normalized / M2-1 Log2 Median Normalized / M2-2 Log2 Median Normalized: protein abundance, ENR+CD versus ENR organoids; for Average logFC: aggregate of the four sample pairs; for M1-1 Log2 Median Normalized: replicate M1-1; for M1-1 Log2 Median Normalized / M1-2 Log2 Median Normalized / M2-1 Log2 Median Normalized / M2-2 Log2 Median Normalized: log2 ratio; for M1-2 Log2 Median Normalized: replicate M1-2; for M2-1 Log2 Median Normalized: replicate M2-1; for M2-2 Log2 Median Normalized: replicate M2-2; for change: up = enriched in ENR+CD, down = enriched in ENR, FDR<0.05 and log fold change cut-off

Molecule	Average logFC	M1-1 Log2 Median Normalized	M1-2 Log2 Median Normalized	M2-1 Log2 Median Normalized	M2-2 Log2 Median Normalized	change
B1	−1.162	−1.382	−1	−1.1875	−1.08	down
B2	−1.573	−0.519	−1.799	−2.7635	−1.209	down
B3	1.143	1.196	1.332	1.1055	0.94	up
B4	−1.897	−1.567	−1.082	−2.3845	−2.554	down
B5	1.236	1.328	1.122	0.9365	1.559	up
B6	−2.852	−2.092	−3.168	−4.1035	−2.045	down
B7	−1.533	−1.026	−1.492	−1.5695	−2.043	down
B8	1.212	1.21	0.504	1.2845	1.769	up
B9	−2.195	−1.957	−1.145	−2.8495	−2.827	down
B10	−1.442	−1.589	−1.441	−1.0795	−1.499	down
B11	−1.315	−1.316	−1.094	−1.2715	−1.62	down
B12	1.372	1.371	1.475	1.4645	0.855	up
